The source of these data is the Immune Epitope Database (IEDB).

The target in one assay is HLA-A*02:01. The experiment in a line: IEDB peptide-MHC binding, purified MHC/competitive/radioactivity; ≥ and ≤ were set here for values at or beyond the usual limits of such assays. Particulars: source organism: Lassa virus Josiah.
Another assay has as its target HLA-A*02:02. The description is as above.
A further assay deals with HLA-A*02:06. Described as above.
In another assay the target is HLA-A*02:03. The assay is described as above.
The next assay deals with HLA-A*68:02. The experiment in a line: IEDB peptide-MHC binding, purified MHC/competitive/radioactivity; filed as Kd, often an IC50 or EC50 that approximates it; ≥ and ≤ were set here for values at or beyond the usual limits of such assays.
Where [1] appears, read: source organism: Lassa virus Josiah.
The mark [2] stands for this setting: source organism: Lassa virus GA391.

For the sequence GLYKQPGVPV, the IC50 with HLA-A*02:01 is 89 nM. Turning to GLYNFATCGL, the IC50 with HLA-A*02:01 is 31 nM. The same measure, in the same setting: then IISTFHLSI, with 330 nM; and ILAADLEKL, with 92 nM; and LIALSVLAV, with 102 nM. As for LMSIISTFHL, the IC50 with HLA-A*02:01 is 113 nM.

For the sequence SLYKGVYEL, the 50% inhibitory concentration (IC50) with HLA-A*02:01 was 47 nM; in the assay with HLA-A*02:02 (setting [1]) it was 115 nM; with HLA-A*02:06 (setting [1]) it was 395 nM; with HLA-A*02:03 (setting [1]) it was 12 nM. Also, the Kd with HLA-A*68:02 (setting [1]) is at least 10000 nM. Take VLIALSVLAV: the IC50 with HLA-A*02:01 amounted to 485 nM. As for YLISIFLHL, the concentration for half-maximal inhibition (IC50) with HLA-A*02:01 was 14 nM; in the assay with HLA-A*02:02 (setting [2]), 173 nM; with HLA-A*02:06 (setting [2]) it was 10 nM; with HLA-A*02:03 (setting [2]), 11 nM. For the same sequence, the Kd in the assay with HLA-A*68:02 (setting [2]) worked out at 6660 nM.

A word on the IC50: it is the concentration at which inhibition is half-maximal. The term Kd denotes the concentration at which binding is half-saturated.
